From patent US20260240831A1, “CANCER STRATIFICATION AND TREATMENT” (Deutsches Krebsforschungszentrum Stiftung des öffentlichen …, priority 2023, published 2026)
Entries after “also recorded” stand apart in the source; their conditions may differ.

B1: SFRP1: secreted Wnt antagonist; human SFRP1 cloned downstream of the TCF/Lef promoter, lentivirally overexpressed in GBM cells (protein, UniProt Q8N474 32-314, looked up)
Secreted frizzled-related …: SEYDYVSFQSDIGPYQSGRFYTKPPQCVDIPADLRLCHNVGYKKMVLPNLLEHETMAEVKQQASSWVPLLNKNCHAGTQVFLCSLFAPVCLDRPIYPCRWLCEAVRDSCEPVMQFFGFYWPEMLKCDKFPEGDVCIAMTPPNATEASKPQGTTVCPPCDNELKSEAIIEHLCASEFALRMKIKEVKKENGDKKIVPKKKKPLKLGPIKKKDLKKLVLYLKNGADCPCHQLDNLSHHFLIMGRKVKSQYLLTAIHKWDKKNKEFKNFMKKMKNHECPTFQSVFK
B2: NOTUM: Wnt antagonist notum polypeptide (Genbank Acc No. NP_848588.3), overexpressed in PDX GBM cells (protein, UniProt Q6P988 20-496, looked up)
Palmitoleoyl-protein …: SEGRKTWRRRGQQPPPPPRTEAAPAAGQPVESFPLDFTAVEGNMDSFMAQVKSLAQSLYPCSAQQLNEDLRLHLLLNTSVTCNDGSPAGYYLKESRGSRRWLLFLEGGWYCFNRENCDSRYDTMRRLMSSRDWPRTRTGTGILSSQPEENPYWWNANMVFIPYCSSDVWSGASSKSEKNEYAFMGALIIQEVVRELLGRGLSGAKVLLLAGSSAGGTGVLLNVDRVAEQLEKLGYPAIQVRGLADSGWFLDNKQYRHTDCVDTITCAPTEAIRRGIRYWNGVVPERCRRQFQEGEEWNCFFGYKVYPTLRCPVFVVQWLFDEAQLTVDNVHLTGQPVQEGLRLYIQNLGRELRHTLKDVPASFAPACLSHEIIIRSHWTDVQVKGTSLPRALHCWDRSLHDSHKASKTPLKGCPVHLVDSCPWPHCNPSCPTVRDQFTGQEMNVAQFLMHMGFDMQTVAQPQGLEPSELLGMLSNGS

Key:
T6 PDA = assay: scRNA-seq with ptalign cell states of SFRP1-overexpressing T6 PDA in human cortical organoids; format: cell-based; conditions: 2-week PDA replicates, compared with PDX (not shown)
Protocol: For injection of lentivirally transduced primary GBM cells into human brain organoids, 3×10^4 cells were cultured as single cell suspension overnight. Newly formed spheres were resuspended in 1 μl of Differentiation Medium with vitamin A, loaded into a NanoFil syringe and injected into the core of 2 month-old organoids under a dissection microscope. Tumor bearing organoids were maintained in Differentiation Medium with vitamin A on an orbital shaker (70 RPM) for 15 days at 5% CO2 and 37° C.
In sequence alignment, the position of one query sequence in a larger reference sequence is ascertained by scoring local sequence similarity until an optimal match is found. We employ a conceptually similar strategy to infer a given query cell's optimal positioning in the space of a reference pseudotime trajectory in a method we call ptalign. The ptalign program requires four central inputs: a query counts table, a reference counts table, a reference pseudotime mapping, and a set of genes capturing the reference pseudotime trajectory. Query cells are then placed along the reference pseudotime according to the dynamic of the correlation of their gene expression along the trajectory genes. […] The quality of an assigned pseudotime is determined via the computation of a dynamic time warping (DTW) matrix over the pseudotime-binned reference and the equally binned query. […]

PDX GBMs [1] = assay: Tumor IHC morphology of SFRP1-overexpressing PDX; format: in vivo; conditions: mouse cortex, vs control Wnt-reporter PDX
PDX GBMs [2] = assay: scRNA-seq with ptalign cell states of Wnt-antagonist-overexpressing PDX samples; format: in vivo, mouse; conditions: for Activation state (ptalign cell state) / tumor Differentiation (ptalign aligned pseudotime) / tumor Quiescence (ptalign cell state, incl. astroQ): PDX vs control Wnt-reporter PDX
Protocol: For isolation of the xenografted human GBM cells, tumor bearing mouse brains were dissected and single cell suspension was prepared using Brain Tumor Dissociation Kit (P) and gentleMACS Octo Dissociator with Heaters (Miltenyi) according to manufacturer's instructions. mCherry+ cell population was index sorted into 384 well-plates (Eppendorf Lobind). Microplates containing cell lysates were briefly centrifuged, snap frozen on dry ice and were stored at −80° C. Sytox Blue (Life Technologies, 1:1000) was used in all experiments as a dead cell indicator. Index sorting of single cells as well as sorting of bulk samples was carried out using a 100 micron nozzle at a BD FACSAria II or BD FACSAria Fusion at the Flow Cytometry Core Facility at the DKFZ.
Single cell RNA-sequencing libraries from patient-derived xenografts were prepared using Smart-seq3 platform as previously described (Hagemann-Jensen, Nature Biotechnology, 2020) with minor modifications. The protocol was automated and miniaturized by incorporating liquid handling platforms including Mosquito HV (STPLabtech), Mantix (Formulatrix) and Viaflo 384 (Integra). Briefly, plates were incubated at 72° C. for 10 min to facilitate lysis and denaturation of secondary structures in the RNA. Lysed cells were subjected to reverse transcription in 2 μl using Maxima H-minus reverse transcriptase (Thermo Scientific), an oligo(dT) primer and a template-switching oligonucleotide encompassing an 8-bp unique molecular identifier (IDT). In a randomly selected set of wells, we included ERCC Spike-ins (Ambion) at a 1:2500000 dilution. Full length cDNAs were amplified for 22 cycles of PCR using KAPA HiFi DNA polymerase (KAPA Biosystems). cDNA samples were purified with Ampure XP beads at a 1:0.8 ratio and cDNA quality in randomly selected 10 wells/plate was assessed on a High Sensitivity Bioanalyzer chip (Agilent). cDNA concentrations were quantified using Quant-it PicoGreen dsDNA Assay kit (Thermo Scientific) and Synergy LX multi-mode microplate reader (Biotek). cDNAs were normalized to 250-500 pg μl^−1. 100-200 pg of cDNA per sample was used for tagmentation in 1.2 μl using Illumina XT DNA sample preparation kit. Libraries were finally amplified for 11 cycles of PCR in 4 μl using custom-designed Nextera index primers containing 8-bp index barcode sequences with a minimal Levenshtein distance of 4 as previously published (Buenrostro et al., Nature, 2015). Samples were purified with Ampure XP beads at a 1:0.8 ratio and DNA quality in randomly selected 10 wells/plate was assessed on a High Sensitivity Bioanalyzer chip (Agilent). Libraries were quantified as mentioned above and normalized libraries were equimolarly pooled and purified one last time at a 1:0.8 ratio. Prior to sequencing, final library concentration was determined using Qubit dsDNA High Sensitivity Assay kit (Thermo Scientific) and Qubit fluorometer (Invitrogen) and the average fragment size was calculated on a High Sensitivity Bioanalyzer chip (Agilent). Libraries with 1% spiked-in PhiX control (Illumina) were sequenced at the 75-bp paired end on a high output flow cell using an Illumina NextSeq550 instrument at a sequencing depth of ~1 M reads per cell at the sequencing open lab at the DKFZ.
In sequence alignment, the position of one query sequence in a larger reference sequence is ascertained by scoring local sequence similarity until an optimal match is found. We employ a conceptually similar strategy to infer a given query cell's optimal positioning in the space of a reference pseudotime trajectory in a method we call ptalign. The ptalign program requires four central inputs: a query counts table, a reference counts table, a reference pseudotime mapping, and a set of genes capturing the reference pseudotime trajectory. Query cells are then placed along the reference pseudotime according to the dynamic of the correlation of their gene expression along the trajectory genes. […]

PDX GBMs [3] = assay: Survival of mice bearing Wnt-antagonist-overexpressing T6 PDX GBM; format: in vivo, mouse; conditions: for overall survival: overexpression under TCF/Lef promoter in PDX vs Wnt-reporter controls
Source text: We identified the secreted Wnt antagonist SFRP1 as being implicated in the Q-A transition in the healthy SVZ. […] Similarly, [22] reports a role of SFRP1 in regulating the activation of human NSCs, and data from our own lab implicates its most-conserved paralog, SFRP5, in the activation of murine NSCs. Following these evidences and in order to target Wnt-active tumor cells, we cloned human SFRP1 downstream of the TCF/Lef promoter and generated T6 PDA and PDX tumors as outlined previously.
To allow sorting of human GBM cells, cells were infected with the 7TGC (Addgene plasmid #24304) lentiviral vector at a multiplicity of infection (MOI) of 5. Expression of the transduction marker (mCherry) was confirmed by FACS analysis. Second-generation, self-inactivating, replication deficient lentiviral particles were produced, purified and titrated as described previously ([32]).
For ortotopic injection of lentivirally transduced primary GBM cells into the mouse brain, 5×10^5 cells were cultured as single cell suspension overnight. Newly formed spheres were resuspended in 2 μl of Matrigel, loaded into a NanoFil syringe and stereotactically injected into the striatum (2.5 mm lateral to the bregma at a depth of 3.0 mm) of 8-10 week-old Fox Chase SCID-Beige mice under anesthesia. Tumor growth was longitudinally monitored by magnetic resonance imaging at the Small Animal Imaging Center at the DKFZ. Upon reaching termination criteria, mice were sacrificed and brains were collected after transcardial perfusion. For perfusion, mice were anesthetized by intraperitoneal injection of 800 μl of perfusion solution. After opening the thoracic cavity exposing heart, transcardial perfusion was carried out with 10 ml of ice cold HBSS.

| Molecule | effects on Quiescence, Activation and cycling cells in PDA (T6 PDA) | tumor cell morphology (IHC) (PDX GBMs [1]) | cycling cells (PDX GBMs [2]; PDX vs control) | Activation state (ptalign cell state) (PDX GBMs [2]) | tumor Differentiation (ptalign aligned pseudotime) (PDX GBMs [2]) | tumor Quiescence (ptalign cell state, incl. astroQ) (PDX GBMs [2]) | survival longer than control, on average (PDX GBMs [3]; SFRP1 induction in PDX GBMs, before the experiment was terminated) | overall survival (PDX GBMs [3]) | overall survival (PDX GBMs [3]; listed as sFRP1) |
| --- | --- | --- | --- | --- | --- | --- | --- | --- | --- |
| B1 | consistent yet weaker | extensive morphological changes; also recorded: dominant astrocyte-like morphology | relative increase in cycling cells | concomitant reduction in the Activation state | without disturbing differentiation; also recorded: not affected | significantly increased quiescence; also recorded: significant increase in tumor Quiescence | 1 month | significant increase in overall survival | significantly increased survival |
| B2 |  |  |  | concomitant reduction in activation | without disturbing differentiation | significantly increased quiescence |  | significantly increased survival |  |
